Here are results for one variant from IntAct's records for PubMed 17392269.

Sequences and labels used below:
B1: Protein Pixie (Drosophila melanogaster (Fruit fly)), Q9VSS1 (parent)
chain: MSRRKENEEVDKQTRIAIVSDDKCKPKRCRQECKKTCPVVRMGKLCIEVTPTSKIASLSEELCIGCGICVKKCPFEAITIINLPSNLEKHTTHRYSKNSFKLHRLPIPRPGEVLGLVGQNGIGKSTALKILAGKQKPNLGKYANPPDWTEILSYFRGSELQNYFTKILEDNLKALVKPQYVDQIPKAVRGAVGDLLDKKDERELQTKICEMLDLSHIRDREIAQLSGGELQRFAIAMVCIQNADIFMFDEPSSYLDVKQRLNAALTIRSLLHPTKFIIVVEHDLSVLDYLSDFICCLYGVPGCYGVVTMPFSVREGINIFLDGFVPTENMRFRTESLTFKVSESATEEEIKRMNHYVYPAMVKTLGKFELTVEKGHFSDSEILVLLGENGTGKTTFIRMLAGNLQPDGEVELPMLNISYKPQKISPKFQNHVRHLLHDKIRDAYVHPQFIADVMKPMKIEEIMDQEVQNLSGGELQRVALVLCLGKPADVYLIDEPSAYLDSEQRLVAAKVIKRYILHAKKTGFVVEHDFIMATYLADRVIVIEGQPSVKTTAFSPQSLLNGMNRFLELLGITFRRDPNNFRPRINKNNSVKDTEQKRSGQFFFLEDEACN
partner: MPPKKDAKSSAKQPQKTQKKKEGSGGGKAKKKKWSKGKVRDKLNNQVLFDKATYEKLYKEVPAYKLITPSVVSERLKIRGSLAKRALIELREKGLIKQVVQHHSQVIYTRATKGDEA

Variants of B1 are the subject of this assay. The note with it: with rs25_drome RpS25, P48588.
For E503Q, the “effect of a mutation on the interaction” value was “increasing interaction”.
